# Measured values from publication PMC11080051, “Melanoma-Derived DNA Polymerase Theta Variants Exhibit Altered DNA Polymerase Activity”.
# Numbering of substitutions follows the chain as printed.
# B1: 25/40 primer-template duplex (CG template) (dsDNA)
# DNA 1: TTTGCCTTGACCATGTAACAGAGAG
# DNA 2: TCTCTTCTCTCACTCACGCTCTCTGTTACATGGTCAAGGC
# Legend:
# Test in all cases: EMSA; 6 mM MgCl2; EMSA: 10 mM Tris-HCl pH 7.5, 6 mM MgCl2, 100 mM NaCl, 10% glycerol, 0.1% NP-40; 10 nM DNA, 0-1000 nM protein, 1 h at room temperature; 6% native PAGE
# Conditions in all cases: protein: recombinant; tags: 6xHis-SUMO, cleaved off; label: 5'-6-FAM on primer; 22 bp; 5' overhang 18 nt on template; 5' overhang 3 nt (TTT) on primer
# [1] = biological target: T1, DNA polymerase theta polymerase domain (PolQM1), L2538R (Homo sapiens, UniProt O75417 1792-2590, L2538R)
# T1 sequence: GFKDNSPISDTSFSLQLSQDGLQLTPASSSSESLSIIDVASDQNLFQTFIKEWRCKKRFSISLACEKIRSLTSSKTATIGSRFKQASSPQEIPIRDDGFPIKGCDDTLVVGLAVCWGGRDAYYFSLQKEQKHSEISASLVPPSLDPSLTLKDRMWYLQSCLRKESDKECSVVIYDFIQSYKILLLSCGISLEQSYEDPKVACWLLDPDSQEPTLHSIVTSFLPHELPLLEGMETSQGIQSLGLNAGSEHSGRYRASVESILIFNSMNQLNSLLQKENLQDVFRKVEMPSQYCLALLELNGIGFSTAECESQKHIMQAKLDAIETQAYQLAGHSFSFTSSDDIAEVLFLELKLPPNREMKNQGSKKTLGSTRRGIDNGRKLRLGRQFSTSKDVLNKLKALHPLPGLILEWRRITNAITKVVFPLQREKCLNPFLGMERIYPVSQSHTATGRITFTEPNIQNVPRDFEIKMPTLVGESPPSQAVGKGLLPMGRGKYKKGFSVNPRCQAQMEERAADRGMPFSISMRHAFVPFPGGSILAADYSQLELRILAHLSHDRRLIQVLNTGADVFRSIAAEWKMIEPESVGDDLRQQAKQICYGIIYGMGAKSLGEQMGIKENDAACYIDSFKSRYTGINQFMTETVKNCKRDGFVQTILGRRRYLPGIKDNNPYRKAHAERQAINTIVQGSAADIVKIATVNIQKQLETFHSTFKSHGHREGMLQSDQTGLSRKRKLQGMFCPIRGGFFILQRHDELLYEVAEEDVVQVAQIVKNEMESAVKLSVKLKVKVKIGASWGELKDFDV
# [2] = biological target: T2, DNA polymerase theta polymerase domain (PolQM1), WT (Homo sapiens, UniProt O75417 1792-2590)
# T2 sequence: T1 sequence with R747L
# [3] = biological target: T3, DNA polymerase theta polymerase domain (PolQM1), T2161I (Homo sapiens, UniProt O75417 1792-2590, T2161I)
# T3 sequence: T1 sequence with T370I, R747L
# [4] = biological target: T4, DNA polymerase theta polymerase domain (PolQM1), E2406K (Homo sapiens, UniProt O75417 1792-2590, E2406K)
# T4 sequence: T1 sequence with E615K, R747L
binder,measurement,setting,value
B1,Kd,[1],18 ± 4 nM
same,Kd,[2],18 ± 3 nM
same,Kd,[3],13 ± 3 nM
same,Kd,[4],14 ± 3 nM
